Assay results published in publication PMC8765073 (mAbs, 2022).
Numbering of substitutions follows the chain as printed. Read-outs that look alike come from different tables or passages of the source.

B1: Y1.10 (scFv, V domains shown)
VH: QVQLQQSGAEVKKPGSSVKVSCKASGGTFGNWTISWVRQAPGQGLEWMGGIGPRQGEATYAQKFQGRVTITTDESTSTAYMELSSLRSEDTAVYYCARETWYTSGGMDVWGQGTTVTVSS
VL: SYELTQPPSVSVAPGKTARITCGGNNIGRKSVHWYQQKPGQAPVLVVYDDSDRPSGIPERFSGSNSGNTATLTISRVEAGDEADYYCQVYDLWSSDYVFGTGTKVEIK
B2: Y9.6 (scFv, V domains shown)
VH: B1 VH with G52I, R54T, Q55I
VL: B1 VL
B3: Y7.10 (scFv, V domains shown)
VH: B1 VH with G52I, R54S, Q55R
VL: B1 VL
B4: D27LE (antibody, V domains shown)
VH: B1 VH with T33S, G52D, R54S, Q55R
VL: B1 VL
B5: Y4.1 (scFv, V domains shown)
VH: B1 VH with G52A, R54T, Q55R
VL: B1 VL
B6: D27LE, scFv (scFv, V domains shown)
VH: B1 VH with T33S, G52D, R54S, Q55R
VL: B1 VL
B7: Y8.10 (scFv, V domains shown)
VH: B1 VH with T33S, G52A, R54G
VL: B1 VL
B8: Y6.8 (scFv, V domains shown)
VH: B1 VH with G52A, R54D, Q55R
VL: B1 VL
B9: Y9.7 (scFv, V domains shown)
VH: B1 VH with T33S, G52N, R54S, Q55I
VL: B1 VL
B10: Y2.1 (scFv, V domains shown)
VH: B1 VH with T33S, G52V, Q55D
VL: B1 VL
B11: D27LEY (antibody, V domains shown)
VH: B1 VH with T33S, G52A, R54G, Q55R
VL: B1 VL
B12: Y4.2 (D27LEY), scFv (scFv, V domains shown)
VH: B1 VH with T33S, G52A, R54G, Q55R
VL: B1 VL

What was measured:
Assay in all cases: BLI
[1] = target: T1, N501Y mutant RBD (SARS-CoV-2 Alpha (B.1.1.7), RBD N501Y, N501Y)
[2] = target: T1, N501Y mutant RBD; remark: listed apart in the source
[3] = target: RBD of the Delta variant (SARS-CoV-2, Delta (B.1.617.2), L452R | T478K)

Row | Binder | Kd [1] | Kd [2] | Kd [3]
1 | B1 | 842 nM |  | 
2 | B2 | 263 nM |  | 
3 | B3 | 41.2 nM |  | 
4 | B4 |  | 0.54 nM | 
5 | B5 | 102 nM |  | 
6 | B6 | 276 nM |  | 
7 | B7 | 21.3 nM |  | 
8 | B8 | 93.5 nM |  | 
9 | B9 | 79.2 nM |  | 
10 | B10 | 30.8 nM |  | 
11 | B11 |  | < 0.001 nM | 0.32 nM
12 | B12 | 9.4 nM | 4.87 nM | 
